# T1: TNFR1 (Homo sapiens, UniProt P19438)
# T1 chain: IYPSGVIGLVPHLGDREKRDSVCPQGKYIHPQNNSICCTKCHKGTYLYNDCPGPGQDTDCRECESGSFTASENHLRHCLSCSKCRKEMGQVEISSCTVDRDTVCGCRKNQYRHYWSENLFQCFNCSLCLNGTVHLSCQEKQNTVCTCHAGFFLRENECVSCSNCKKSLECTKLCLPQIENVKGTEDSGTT
# Biological target: T1, TNFR1
# Test: yeast display SC50
row,Binder,apparent Kd (screen)
1,E4V (designed binder) SMEVEVEKAAKEYEKKKKEAIEKHLEKLKAKDKEAAERFLKELEEAAKEYAKDEAKTMSEEEAKRRAKKYKEKVLLSELSEEEQKEIKEAEEKLVRTILKYVEEAAK,1.05 nM
2,S59M (designed binder) SMEEEVEKAAKEYEKKKKEAIEKHLEKLKAKDKEAAERFLKELEEAAKEYAKDEAKTMMEEEAKRRAKKYKEKVLLSELSEEEQKEIKEAEEKLVRTILKYVEEAAK,1.69 nM
3,K23N (designed binder) SMEEEVEKAAKEYEKKKKEAIENHLEKLKAKDKEAAERFLKELEEAAKEYAKDEAKTMSEEEAKRRAKKYKEKVLLSELSEEEQKEIKEAEEKLVRTILKYVEEAAK,0.49 nM
4,E60D (designed binder) SMEEEVEKAAKEYEKKKKEAIEKHLEKLKAKDKEAAERFLKELEEAAKEYAKDEAKTMSDEEAKRRAKKYKEKVLLSELSEEEQKEIKEAEEKLVRTILKYVEEAAK,1.27 nM
5,K31C (designed binder) SMEEEVEKAAKEYEKKKKEAIEKHLEKLKACDKEAAERFLKELEEAAKEYAKDEAKTMSEEEAKRRAKKYKEKVLLSELSEEEQKEIKEAEEKLVRTILKYVEEAAK,1.27 nM
6,E37V (designed binder) SMEEEVEKAAKEYEKKKKEAIEKHLEKLKAKDKEAAVRFLKELEEAAKEYAKDEAKTMSEEEAKRRAKKYKEKVLLSELSEEEQKEIKEAEEKLVRTILKYVEEAAK,0.539 nM
7,S1R (designed binder) RMEEEVEKAAKEYEKKKKEAIEKHLEKLKAKDKEAAERFLKELEEAAKEYAKDEAKTMSEEEAKRRAKKYKEKVLLSELSEEEQKEIKEAEEKLVRTILKYVEEAAK,0.869 nM
8,K23Q (designed binder) SMEEEVEKAAKEYEKKKKEAIEQHLEKLKAKDKEAAERFLKELEEAAKEYAKDEAKTMSEEEAKRRAKKYKEKVLLSELSEEEQKEIKEAEEKLVRTILKYVEEAAK,0.446 nM
9,K8S (designed binder) SMEEEVESAAKEYEKKKKEAIEKHLEKLKAKDKEAAERFLKELEEAAKEYAKDEAKTMSEEEAKRRAKKYKEKVLLSELSEEEQKEIKEAEEKLVRTILKYVEEAAK,1.4 nM
10,E3H (designed binder) SMHEEVEKAAKEYEKKKKEAIEKHLEKLKAKDKEAAERFLKELEEAAKEYAKDEAKTMSEEEAKRRAKKYKEKVLLSELSEEEQKEIKEAEEKLVRTILKYVEEAAK,1.86 nM
11,E14R (designed binder) SMEEEVEKAAKEYRKKKKEAIEKHLEKLKAKDKEAAERFLKELEEAAKEYAKDEAKTMSEEEAKRRAKKYKEKVLLSELSEEEQKEIKEAEEKLVRTILKYVEEAAK,5.31 nM
12,R38Q (designed binder) SMEEEVEKAAKEYEKKKKEAIEKHLEKLKAKDKEAAEQFLKELEEAAKEYAKDEAKTMSEEEAKRRAKKYKEKVLLSELSEEEQKEIKEAEEKLVRTILKYVEEAAK,1.86 nM
13,Y50I (designed binder) SMEEEVEKAAKEYEKKKKEAIEKHLEKLKAKDKEAAERFLKELEEAAKEIAKDEAKTMSEEEAKRRAKKYKEKVLLSELSEEEQKEIKEAEEKLVRTILKYVEEAAK,0.0802 nM
14,E34F (designed binder) SMEEEVEKAAKEYEKKKKEAIEKHLEKLKAKDKFAAERFLKELEEAAKEYAKDEAKTMSEEEAKRRAKKYKEKVLLSELSEEEQKEIKEAEEKLVRTILKYVEEAAK,0.446 nM
15,E12W (designed binder) SMEEEVEKAAKWYEKKKKEAIEKHLEKLKAKDKEAAERFLKELEEAAKEYAKDEAKTMSEEEAKRRAKKYKEKVLLSELSEEEQKEIKEAEEKLVRTILKYVEEAAK,1.54 nM
16,E34G (designed binder) SMEEEVEKAAKEYEKKKKEAIEKHLEKLKAKDKGAAERFLKELEEAAKEYAKDEAKTMSEEEAKRRAKKYKEKVLLSELSEEEQKEIKEAEEKLVRTILKYVEEAAK,0.405 nM
17,K31L (designed binder) SMEEEVEKAAKEYEKKKKEAIEKHLEKLKALDKEAAERFLKELEEAAKEYAKDEAKTMSEEEAKRRAKKYKEKVLLSELSEEEQKEIKEAEEKLVRTILKYVEEAAK,0.49 nM
18,A35R (designed binder) SMEEEVEKAAKEYEKKKKEAIEKHLEKLKAKDKERAERFLKELEEAAKEYAKDEAKTMSEEEAKRRAKKYKEKVLLSELSEEEQKEIKEAEEKLVRTILKYVEEAAK,0.539 nM
19,Y50K (designed binder) SMEEEVEKAAKEYEKKKKEAIEKHLEKLKAKDKEAAERFLKELEEAAKEKAKDEAKTMSEEEAKRRAKKYKEKVLLSELSEEEQKEIKEAEEKLVRTILKYVEEAAK,3.99 nM

# Second part, the binder after the results:
row,apparent Kd (screen),Binder
1,2.48 nM,K69Y (designed binder) SMEEEVEKAAKEYEKKKKEAIEKHLEKLKAKDKEAAERFLKELEEAAKEYAKDEAKTMSEEEAKRRAKYYKEKVLLSELSEEEQKEIKEAEEKLVRTILKYVEEAAK
2,5.84 nM,R66C (designed binder) SMEEEVEKAAKEYEKKKKEAIEKHLEKLKAKDKEAAERFLKELEEAAKEYAKDEAKTMSEEEAKRCAKKYKEKVLLSELSEEEQKEIKEAEEKLVRTILKYVEEAAK
3,0.208 nM,V102Q (designed binder) SMEEEVEKAAKEYEKKKKEAIEKHLEKLKAKDKEAAERFLKELEEAAKEYAKDEAKTMSEEEAKRRAKKYKEKVLLSELSEEEQKEIKEAEEKLVRTILKYQEEAAK
4,13.8 nM,K73N (designed binder) SMEEEVEKAAKEYEKKKKEAIEKHLEKLKAKDKEAAERFLKELEEAAKEYAKDEAKTMSEEEAKRRAKKYKENVLLSELSEEEQKEIKEAEEKLVRTILKYVEEAAK
5,1.86 nM,E78D (designed binder) SMEEEVEKAAKEYEKKKKEAIEKHLEKLKAKDKEAAERFLKELEEAAKEYAKDEAKTMSEEEAKRRAKKYKEKVLLSDLSEEEQKEIKEAEEKLVRTILKYVEEAAK
6,0.405 nM,Y101P (designed binder) SMEEEVEKAAKEYEKKKKEAIEKHLEKLKAKDKEAAERFLKELEEAAKEYAKDEAKTMSEEEAKRRAKKYKEKVLLSELSEEEQKEIKEAEEKLVRTILKPVEEAAK
7,5.84 nM,Y70D (designed binder) SMEEEVEKAAKEYEKKKKEAIEKHLEKLKAKDKEAAERFLKELEEAAKEYAKDEAKTMSEEEAKRRAKKDKEKVLLSELSEEEQKEIKEAEEKLVRTILKYVEEAAK
8,26.9 nM,R66M (designed binder) SMEEEVEKAAKEYEKKKKEAIEKHLEKLKAKDKEAAERFLKELEEAAKEYAKDEAKTMSEEEAKRMAKKYKEKVLLSELSEEEQKEIKEAEEKLVRTILKYVEEAAK
9,0.405 nM,L94I (designed binder) SMEEEVEKAAKEYEKKKKEAIEKHLEKLKAKDKEAAERFLKELEEAAKEYAKDEAKTMSEEEAKRRAKKYKEKVLLSELSEEEQKEIKEAEEKIVRTILKYVEEAAK
10,7.07 nM,E91A (designed binder) SMEEEVEKAAKEYEKKKKEAIEKHLEKLKAKDKEAAERFLKELEEAAKEYAKDEAKTMSEEEAKRRAKKYKEKVLLSELSEEEQKEIKEAAEKLVRTILKYVEEAAK
11,1.27 nM,S80Q (designed binder) SMEEEVEKAAKEYEKKKKEAIEKHLEKLKAKDKEAAERFLKELEEAAKEYAKDEAKTMSEEEAKRRAKKYKEKVLLSELQEEEQKEIKEAEEKLVRTILKYVEEAAK
12,3 nM,R96A (designed binder) SMEEEVEKAAKEYEKKKKEAIEKHLEKLKAKDKEAAERFLKELEEAAKEYAKDEAKTMSEEEAKRRAKKYKEKVLLSELSEEEQKEIKEAEEKLVATILKYVEEAAK
13,0.593 nM,E83Q (designed binder) SMEEEVEKAAKEYEKKKKEAIEKHLEKLKAKDKEAAERFLKELEEAAKEYAKDEAKTMSEEEAKRRAKKYKEKVLLSELSEEQQKEIKEAEEKLVRTILKYVEEAAK
14,1.4 nM,E61Q (designed binder) SMEEEVEKAAKEYEKKKKEAIEKHLEKLKAKDKEAAERFLKELEEAAKEYAKDEAKTMSEQEAKRRAKKYKEKVLLSELSEEEQKEIKEAEEKLVRTILKYVEEAAK
15,7.07 nM,E91V (designed binder) SMEEEVEKAAKEYEKKKKEAIEKHLEKLKAKDKEAAERFLKELEEAAKEYAKDEAKTMSEEEAKRRAKKYKEKVLLSELSEEEQKEIKEAVEKLVRTILKYVEEAAK
16,0.49 nM,E81R (designed binder) SMEEEVEKAAKEYEKKKKEAIEKHLEKLKAKDKEAAERFLKELEEAAKEYAKDEAKTMSEEEAKRRAKKYKEKVLLSELSREEQKEIKEAEEKLVRTILKYVEEAAK

# — publication PMC12416549 (2024)
